# pKd: −log10 of the molar value.
# Assays:
# [1] = biological target: human GITR overexpressed on CHO cells (CHO-GITR) (human) (UniProt Q9Y5U5); test: flow cytometry on CHO-GITR cells, PE anti-human Fc detection, MFI; direct binding titration, the table row is labelled IC50, nM is taken from the concentration axis
# human GITR-His (human) [2] = biological target: human GITR-His (human) (UniProt Q9Y5U5); test: ForteBio BLI, antibody on AHQ tip, human GITR-His 100 nM in solution
# human GITR-His (human) [3] = biological target: human GITR-His (human) (UniProt Q9Y5U5); test: as above; remark: listed apart in the source
# [4] = biological target: GITR protein overexpressed on Hela cells (Hela-GITR-NF-κB-Luc-Rep); test: cell-based or functional assay
# human GITR-His (human) [5] = biological target: human GITR-His (human) (UniProt Q9Y5U5); test: ForteBio BLI, antibody on AHQ tip, human GITR-His 100 nM in solution, 1:1 model
# Sequence of human GITR-His (human) (Q9Y5U5 other isoform, or with tags, fused parts or gaps): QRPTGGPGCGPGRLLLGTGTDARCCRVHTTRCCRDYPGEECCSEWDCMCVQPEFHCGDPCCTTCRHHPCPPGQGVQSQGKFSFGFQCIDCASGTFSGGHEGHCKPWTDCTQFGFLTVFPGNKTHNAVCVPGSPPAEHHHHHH
# Sequence of human GITR overexpressed on CHO cells (CHO-GITR) (human) (Q9Y5U5 26-241): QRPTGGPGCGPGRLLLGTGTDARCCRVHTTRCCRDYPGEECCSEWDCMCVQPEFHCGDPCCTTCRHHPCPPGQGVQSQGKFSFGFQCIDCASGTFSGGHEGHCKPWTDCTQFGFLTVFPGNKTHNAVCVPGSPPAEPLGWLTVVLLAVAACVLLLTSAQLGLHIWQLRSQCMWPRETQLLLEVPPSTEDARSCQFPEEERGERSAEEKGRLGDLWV
substance,measurement,setting,value
TRX518 (antibody),EC50 for binding,[1],0.242 nM
same,pKd,human GITR-His (human) [2],8.07
same,koff,human GITR-His (human) [2],0.00292 s⁻¹
same,kon,human GITR-His (human) [2],342000 M⁻¹ s⁻¹
same,pKd,human GITR-His (human) [3],8.02
same,koff,human GITR-His (human) [3],0.00206 s⁻¹
same,kon,human GITR-His (human) [3],214000 M⁻¹ s⁻¹
same,EC50 for the activation (NF-κB luciferase reporter),[4],2.1 nM
same,pKd,human GITR-His (human) [5],7.58
same,koff,human GITR-His (human) [5],0.00484 s⁻¹
same,kon,human GITR-His (human) [5],185000 M⁻¹ s⁻¹
